# From the DeepSol protein solubility set
# Experiment: soluble on expression in E. coli; label from the status in PepcDB or PDB records
row,Sequence,soluble on expression in E. coli
1,MGGPEKNSTVPLPNKKRKKKTNKKKPTAPNTPTSPQAGEKNANLKNGTVTTNGSNHVERLAGRAVHSLSAIDYSGITNDVEAGGSFSLTDVFPTVIFMFVVLFCRWLNGFSQHRERLYKFEDEAVQRRRRFRVHSEESEELNDHESYSETDICTQLLASSADVTCHINVDLVNQNRFYFFVKQRNKKENSTNEEEEISSQEINTSTQNEETEVNLVFASAEDNGGVASNFDISDALMVTSNISEVSKLPETLCEEGETVQQKSVVNENDHSNEDDEQSLQSQDGSRCSDEDMNSCVSASDEEDVESQDDSFHVNDATEESIDSVSSIESQEAEESATEDLASCHSNDDKNEKDVLVDEDTSKYDNLPVEMRSAKEGEESEGTIDSSVSSSTSSSSTGDDGDDSATSYDSEDIEIQMFEYDLGTACASASISIPRPSIIPRNNKKTEVNANEERLDDLSVSPGRSDSPGGGGGGHSDSFQDPMDPGEQLGSDDEEQEDPRDYKRGGYHPVNIGDVFNARYHVIRKLGWGHFSTVWLAWDTQDKRFVAMKIVKSAEHYTEAALDEIKLLLSVRSADPNDIGCHKVVQLLDEFTVTGINGQHVAMVFEVLGCNLLKLIIRSNYRGLHLEQVRKICRQVLEALGYMHEKCGIIHTDIKPENVLITMSREEIKIMAQHAVVARKMNMKMSGSAVSTAPDHLVKMAQENMTKNKKKKMKKKAKKQREKLEAELAGLEGLKMDANGLQEAYNNAPELENFNASQVEDVTMEDTVNENGNRNKVEIRSPDRFDRTTLTPFSDPESKFGDLASPSAEYLSSPMSQLPPGGILPAPPVGPNIGDPYCDIDVKIADLGNACWVNHHYTDDIQTRQYRALEVLIGSGYGPPADIWSTACMAFELATGDYLFEPHQGDNYSRDEDHLAHISELLGAIPPSIYKKGKHWREFFHKNGHLLHIHQLKPWSLYEVLRQKYEWSHEDAQQFESFLRPMLDFDQEKRSTAKIALKHPFLLPFGGRAPKSDCPPELLSKMFPDGLIPEPFDGNEHQEVYRDENDSRSASERSANSRSAGGSDDDDEEEFNMNRPGPSGHFPIFCSRVFTFMF,soluble
2,MGGRSNSATTAAQQNAVLRIVVVGGGGVGKSALTIQFIQRYFVQDYDPTIEDSYTKQCFVDEDLCKLEILDTAGQEEFSTMREQYLRTGSGFLIVFAVTDRNSFEEVKKLHELICRIKDRDDFPIILVGNKADLENERHVARHEAEELAHRLSIPYLECSAKIRKNVDEAFFDIVRLVRKYQHDERMPIHPHDDRKLESPIKLKKKKNCRIQ,soluble
3,MGGSHHHHHHGMASALRGLEEPGPRPTATPCGCVKPALETGNLLTEPVGYLESCFSAKNGTPRQPSICSYSRACLRIRKRIFNNPEHSLMGLEQFSHVWILFVFHKNGHLSCKAKVQPPRLNGAKTGVFSTRSPHRPNAIGLTLAKLEKVEGGAIYLSGIDMIHGTPVLDIKPYIAEYDSPQNVMEPLADFNLQNNQHTPNTVSQSDSKTDSCDQRQLSGCDEPQPHHSTKRKPKCPEDRTSEENYLTHSDTARIQQAFPMHREIAVDFGLESRRDQSSSVAEEQIGPYCPEKSFSEKGTDKKLERVEGAAVLQGSRAETQPMAPHCPAGRADGAPRSVVPAWVTEAPVATLEVRFTPHAEMDLGQLSSQDVGQASFKYFQSAEEAKRAIEAVLSADPRSVYRRKLCQDRLFYFTVDIAHVTCWFGDGFAEVLRIKPASEPVHMTGPVGSLVSLGS,not soluble
4,MGGSHHHHHHGMASSSNVPADMINLRLILVSGKTKEFLFSPNDSASDIAKHVYDNWPMDWEEEQVSSPNILRLIYQGRFLHGNVTLGALKLPFGKTTVMHLVARETLPEPNSQGQRNREKTGESNCCVIL,not soluble
5,MGGWEEREIRGHSLGHWLSAAAAMYETTGDKALLERIDRAVQELATIQDDVGYVGGVKRAHFDEMFSGEFQVGHFNIAGTWVPWYNLHKLFAGLIDVHQLTGHSLALTVVTKLADWAKKGTDQLTDDQFQRMLICEHGGMNEAMADLYTLTGHKDYLQLAIRFCHWAVLEPLANGIDELEGKHANTQIPKVIGAAKLFEITGDDTYRAIAEFFWRQVTNDRSYIIGGNSNSEHFGPANKETLGVETAETCNTYNMLKLTEHLFRWNRSSQLMDYYEKALYNHILASQDPDSGMKTYFVSLQPGHFKVYSSLEESFWCCFGTGLENPARYTRTIYDRDDRHIYVNLFMASEIHLKDLQVQIRQETNFPETDRTKLTFVKADGVSIKLHIRVPEWVAGPVTARINGKETFSESGADYLTIEREWQKGDEIEVHLPMELRIYEAKDDSHKVGIMYGPIVLAGTFGKDHFPETDIVPNHLSLHNHPLIDVPTLVATKKTPDQWIHPVEGRSLTFRTAAIGQPGNVQITLIPFYALHHERYTVYWNLMSEVEYEAFKARKEVESDQLQARTVDAVQPGEQQPEVEHQLKANHSETGYLNIMQKRWRDSRGEDGFFSYVMKVKPNQQMSLFVTYYGGDHGLFVDGKWCDRSFRILIDDEVIKEEQLLGKNPGETLDVYYPIPLALTEGKEEVVVTFASKEGTVAGGVYGVRMLCNLEHHHHHH,not soluble
6,MGHERDWSLVQVALTDITARKKAEAYLEYLGKHDVLTKLHNRAFYSDELNRLERSALRPVSAIVIDLNGLKEANDKLGHDAGDALLRRVGEVLNGVVTAPNHAARIGGDEFAILLPGADKQVAAAMVDTVYELLKINNQFYSSAPLSLSLGVATTEAGETMESLVRRADMNMYEQKNAYYAALRNRSADNNDTTKGLEHHHHHH,not soluble
7,MGHHHHHHGGHMSLAAQELLRDAFTRLIEHVDELTDGLTDQLACYRPTPSANSIAWLLWHSARVQDIQVAHVAGVEEVWTRDGWVDRFGLDLPRHDTGYGHRPEDVAKVRAPADLLSGYYHAVHKLTLEYIAGMTADELSRVVDTSWNPPVTVSARLVSIVDDCAQHLGQAAYLRGIAEGGS,soluble
8,MGHHHHHHGGHMSLHSGSVEHCIKGRSRRAAPRSEHTGRMADIARKASAHWEGDLKSGNGTITTESGVLSQAQYSFKTRFENGKGTNPEELLASAHAGCFTMQLSALLAEHGHEIKALDTDATCEMVKDGPGFKINHMHLRVRAQLTGSDQADFEAHVKDAAEKCPLSRIMQGNVEVTHEAILEGEGGS,soluble
9,MGHHHHHHGGHMSLIGFLTDWGLKSHYVGVAKAVIKRINPSAEIIDITHEVEPFNVRKASHVLYRASLDFPPSTVFLVVVDYGVGTSRKAIVMKTKNDQYFVAPDNGVLTVVAEEYGVAEIREIENRELFYKKNPSFTFHGRDIFAPVAAHLDMGLPLERVGDRLLSYEVLKMRKPVVENEKVIGEVAIVDTFGNVSTNIPFDLFLKLSVDFDDVVRVRVGRKEFKAAVAKAFGDVDTGELLVHPDSAGFLEIAVNLGDASQVLSVKEGDEIEICREGGS,soluble
10,MGHHHHHHGGHMSLKIYVVYDSEGEHTKVLAEAIAEGARENDAAEVFIDHVDQADIRKLKDMDAIIWGCPGHFGTISSGLKTWIDRLGYLWAEGELINKVGAVFCTTATTHGGLEMTMHNLITPMFHQGMIVVGLPGNVPENALYGSYYGAGVTCPVDSDELMSEEGIQLGRALGRRVSQVTGNLTAGQEGGS,soluble
11,MGHHHHHHGGHMSLRTEEEMFQLIMDVAKQEEHIRAVGMVGSRTNVKAPKDSFQDFDIVYIVEPCAEFFETATWIAKFGQPLIMQRPKEMTLFPTEPKTRETFLMLFEDGQRIDLTLCPLAEKDNWHEGDSLAIILLDKDENLPPLPVASDKNYTVTVPDQQQFNDCCNEFWWVSTYVVKGLCRNELFYAVTHLYEYCQQELLRLLSWQAAWQEPEPISVGKQFKYLKNYVTPDTMDQLASLLDFSSKEACWNSLIKTQAFFDVVAQDFAKMAQFTYHLQEAKKVTEYTNSLRLKDLQGKEGGS,not soluble
12,MGHHHHHHHHHHSSGHIEGRHMEANGLGPQGFPELKNDTFLRAAWGEETDYTPVWCMRQAGRYLPEFRETRAAQDFFSTCRSPEACCELTLQPLRRFPLDAAIIFSDILVVPQALGMEVTMVPGKGPSFPEPLREEQDLERLRDPEVVASELGYVFQAITLTRQRLAGRVPLIGFAGAPWTLMTYMVEGGGSSTMAQAKRWLYQRPQASHQLLRILTDALVPYLVGQVVAGAQALQLFESHAGHLGPQLFNKLALPYIRDVAKQVKARLREAGLAPVPMIIFAKDGHFALEELAQAGYEVVGLDWTVAPKKARECVGKTVTLQGNLDPCALYASEEEIGQLVKQMLDDFGPHRYIANLGHGLYPDMDPEHVGAFVDAVHKHSRLLRQN,soluble
13,MGHHHHHHHHMTTSILDTYPQICSPNALPGTPGNLTKEQEEALLQFRSILLEKNYKERLDDSTLLRFLRARKFDINASVEMFVETERWREEYGANTIIEDYENNKEAEDKERIKLAKMYPQYYHHVDKDGRPLYFEELGGINLKKMYKITTEKQMLRNLVKEYELFATYRVPACSRRAGYLIETSCTVLDLKGISLSNAYHVLSYIKDVADISQNYYPERMGKFYIIHSPFGFSTMFKMVKPFLDPVTVSKIFILGSSYKKELLKQIPIENLPVKYGGTSVLHNPNDKFYYSDIGPWRDPRYIGPEGEIPNIFGKFTVTS,soluble
14,MGHHHHHHMAGGGKHTPTPKAIIHQKFGAKASYTVEEVHDSSQSGCPGLAIPQKGPCLYRCHLQLPEFSVVSNVFKKKKDSEQSAAELALDKLGIRPQNDDLTVDEARDEIVGRIKYIFSDEFLSAEHPLGAHLRAALRRDGERCGSVPVSVIATVDAKINSRCKIINPSVESDPFLAISYVMKAAAKLADYIVASPHGLRRKNAYPSEIVEALATHVSDSLHSREVAAVYIPCIDEEVVELDTLYISSNRHYLDSIAERLGLKDGNQVMISRMFGKASCGSECRLYSEIPKKYLDNSSDASGTSNEDSSHIVKSRNARASYICGQDIHGDAILASVGYRWKSDDLDYDDVTVNSFYRICCGMSPNGIYKISRQAVIAAQLPFAFTTKSNWRGPLPREILGLFCHQHRLAEPILSSSTAPVKSLSDIFRSHKKLKVSGVDDANENLSRQKEDTPGLGHGFRCEVKIFTKSQDLVLECSPRKFYEKENDAIQNASLKALLWFSKFFADLDVDGEQSCDTDDDQDTKSSSPNVFAAPPILQKEHSSESKNTNVLSAEKRVQSITNGSVVSICYSLSLAVDPEYSSDGESPREDNESNEEMESEYSANCESSVEPIESNEEIEFEVGTGSMNPHIESEVTQMTVGEYASFKMTPPDAAEALILAVGSDTVRIRSLLSERPCLNYNILLLGVKGPSEERMEAAFFKPPLSKQRVEYALKHIRESSASTLVDFGCGSGSLLDSLLDYPTSLQTIIGVDISPKGLARAAKMLHVKLNKEACNVKSATLYDGSILEFDSRLHDVDIGTCLEVIEHMEEDQACEFGEKVLSLFHPKLLIVSTPNYEFNTILQRSTPETQEENNSEPQLPKFRNHDHKFEWTREQFNQWASKLGKRHNYSVEFSGVGGSGEVEPGFASQIAIFRREASSVENVAESSMQPYKVIWEWKKEDVEKKKTDL,soluble
15,MGHHHHHHSHAFDLTVPTTNQFLLQYLRRQGVCVRTENLAKYVAELSLLEADPFLKYLPSLIAAAAFCLANYTVNKHFWPETLAAFTGYSLSEIVPCLSELHKAYLDIPHRPQQAIREKYKASKYLCVSLMEPPAVLLLQ,not soluble
16,MGHHHHHHSHDGAEPGRVDTFWYKFLKREPGGELSWEGNGPHHDRCCTYNENNLVDGVYCLPIGHWIEATGHTNEMKHTTDFYFNIAGHQAMHYSRILPNIWLGSCPRQVEHVTIKLKHELGITAVMNFQTEWDIVQNSSGCNRYPEPMTPDTMIKLYREEGLAYIWMPTPDMSTEGRVQMLPQAVCLLHALLEKGHIVYVHCNAGVGRSTAAVCGWLQYVMGWNLRKVQYFLMAKRPAVYIDEEALARAQEDFFQKFGKVRSSVCSL,not soluble
17,MGHHHHHHSHGESEDVTQFLQSHKKTLTNEKLFLMDGKRTWFLEMESTPGEDAMNTVKMTTKDLKYDRSLIDKAGFERTDSNFERSHTVGKMLSNSIMCYRDIFYERESQLMQQTSLLSYEIAIATPTFSNYYPDWSAPINIVARPSTSKKIMTC,not soluble
